Experimental data taken from paper PMC5574023.

Molecular target: platelet receptor GPIIbIIIa (αIIbβ3) on human platelets, P08514;P05106
Experiment: platelet adhesion to immobilized protein (phosphatase assay)
Settings: read off a plot

Substance | response (Absorbance (405 nm)) (parent: est. 0.48) | response (Absorbance (405 nm)) (parent: est. 0.88) | response (Absorbance (405 nm)) (TRAP-activated gel-filtered platelets, 2 × 10^7 per well, 10 μg protein per well, 37°C, 45 min, static, parent: est. 0.88) | response (Absorbance (405 nm)) (non-activated gel-filtered platelets, 2 × 10^7 per well, 10 μg protein per well, 37°C, 45 min, static, parent: est. 0.48)
recombinant PadA-F2 region fragment (from UniProt A8AZP4) G486A; D487A | 0.27 | 0.87 |  | 
recombinant PadA-F2 region fragment (from UniProt A8AZP4) N214A; G215A; R216A | 0.28 | 0.72 |  | 
recombinant PadA-F2 region fragment (from UniProt A8AZP4) N214A; G215A; R216A; R416A; G417A; T418A; G486A; D487A |  |  | 0.2 | 0.49
recombinant PadA-F2 region fragment (from UniProt A8AZP4) R416A; G417A; T418A | 0.21 | 0.8 |  | 
recombinant PadA-F2 region fragment (from UniProt A8AZP4) R416A; G417A; T418A; G486A; D487A | 0.71 | 0.44 |  | 
